Results reported in the DeepSol protein solubility set.

Assay: soluble on expression in E. coli; label from the status in PepcDB or PDB records

Sequence | soluble on expression in E. coli
MSEDSELIEQVIEQPDSLIISPPSDSSSSSYNHIQPFVYLESTATTQTNHNVLLILNQKITIDLISLWKKCEIIVCADGGANSLYEYFNDNNHHHHHENLQRSDYIPDYIVGDFDSISPDVKTYYESHGSKIIRQSSQYYNDFTKSIHCIQLHYQLNHTKENWFESIDEVDGLAKLWNGLNNSSDVVVDIDITIYVLNAIGGRFDQTVQSINQLYIMNEDYPKVTVFFITTNDIIFLLKKGVNYISYKNRLMFHKDNGSSPTPTCGLLPLSNKTPIILNSYGLKYDMRNWKTEMLGQVSSSNRISGETGFIVECSDDIVMNIEIDV | soluble
SLSAKDKANVKAIWGKILPKSDEIGEQALSRMLVVYPQTKAYFSHWASVAPGSAPVKKHGITIMNQIDDCVGHMDDLFGFLTKLSELHATKLRVDPTNFKILAHNLIVVIAAYFPAEFTPEIHLSVDKFLQQLALALAEKYR | soluble
MSRHWPLFDLRITTPRLQLQLPTEELCDQLIDTILEGVHDPDRMPFSVPWTRASREDLPFNTLSHLWQQLAGFKRDDWSLPLAVLVDGRAVGVQALSSKDFPITRQVDSGSWLGLRYQGHGYGTEMRAAVLYFAFAELEAQVATSRSFVDNPASIAVSRRNGYRDNGLDRVAREGAMAEALLFRLTRDDWQRHRTVEVRVDGFDRCRPLFGPLEPPRY | soluble
GHMGITRDVQVPDVRGQSSADAIATLQNRGFKIRTLQKPDSTIPPDHVIGTDPAANTSVSAGDEITVNVSTGPEQREIPDVSTLTYAEAVKKLTAAGFGRFKQANSPSTPELVGKVIGTNPPANQTSAITNVVIIIVGSGPATKDIPDVAGQTVDVAQKNLNVYGFTKFSQASVDSPRPAGEVTGTNPPAGTTVPVDSVIELQVSKGNQFVMPDLSGMFWVDAEPRLRALGWTGMLDKGADVDAGGSQHNRVVYQNPPAGTGVNRDGIITLRFGQ | soluble
MGSDKIHHHHHHMEKVKVKNPIVELDGDEMARVMWKMIKEKLILPYLDIQLVYFDLGIKKRDETDDQITIEAAKAIKKYGVGVKCATITPDAERVKEYNLKKAWKSPNATIRAYLDGTVFRKPIMVKNVPPLVKRWKKPIIIGRHAYGDIYNAVEAKVEGPAEVELVVRNKENKTLLVHKFEGNGVVMAMHNLEKSIRSFAQSCINYAISEKVDIWFATKDTISKVYHAYFKDIFQEEVDKRKEELEKAGVNYRYMLIDDAAAQILRSEGGMLWACMNYEGDIMSDMIASGFGSLGLMTSVLVSPDGVYEFEAAHGTVRRHYYRYLKGEKTSTNPTASIFAWTGAIRKRGELDGTPEVCEFADKLEKAVINTIESGVITKDLQPFTEPPIDKYVTLEEFIDEVKKNLEKLL | not soluble
MGSDKIHHHHHHMGNILWVASYPKSGNTWVRAFLENYIQNAEQGVDINTMHKISTAESAAHRFQARLQDGRKTTDLSLDEICALRPAVQADIAMQAHGTTFVKTHNYLGTYKEYPLHNSSVTSGSIYIVRNPLDVTVSMANYFGYSIDETIAYMAEEMTGTPNEPENVPQVITSWSMHVSSWTQNPEEAKLVLRYEDILDDPKKVFRKIESFLGLKKDPNRLKNAIKHSSFAQLKAQESKRGFVEKHENAKSFFRQGSKNQWRQVLSDEQVAKIVEHHGEQMARFKYLPGKLR | not soluble
MEESKTPHVAIIPSPGMGHLIPLVEFAKRLVHLHGLTVTFVIAGEGPPSKAQRTVLDSLPSSISSVFLPPVDLTDLSSSTRIESRISLTVTRSNPELRKVFDSFVEGGRLPTALVVDLFGTDAFDVAVEFHVPPYIFYPTTANVLSFFLHLPKLDETVSCEFRELTEPLMLPGCVPVAGKDFLDPAQDRKDDAYKWLLHNTKRYKEAEGILVNTFFELEPNAIKALQEPGLDKPPVYPVGPLVNIGKQEAKQTEESECLKWLDNQPLGSVLYVSFGSGGTLTCEQLNELALGLADSEQRFLWVIRSPSGIANSSYFDSHSQTDPLTFLPPGFLERTKKRGFVIPFWAPQAQVLAHPSTGGFLTHCGWNSTLESVVSGIPLIAWPLYAEQKMNAVLLSEDIRAALRPRAGDDGLVRREEVARVVKGLMEGEEGKGVRNKMKELKEAACRVLKDDGTSTKALSLVALKWKAHKKELEQNGNH | soluble
EVKLQESGPSLVKPSQTLSLTCSVTGDSITSDFWSWIRQFPGNRLEYMGFVQYSGETAYNPSLKSRISITRDTSKNQYYLDLNSVTTEDTAVYYCANWHGDYWGQGTTVTVSSAKTTPPSVYPLAPGSAAQTNSMVTLGCLVKGYFPEPVTVTWNSGSLSSGVHTFPAVLQSDLYTLSSSVTVPSSTWPSETVTCNVAHPASSTKVDKKIVPRDCHHHHHH | soluble
MMVRVMRYKKVPVKKIVNKIIDECDVILLVLDARDPEMTRNRELEKKIKAKGKKLIYVLNKADLVPKDILEKWKEVFGENTVFVSAKRRLGTKILREMIKQSLKEMGKKEGKVGIVGYPNVGKSSIINALTGKRKALTGSVAGLTKGEQWVRLTKNIKLMDTPGVLEMRDEDDLVISGALRLEKVENPIPPALKILSRINNFDNSIIKEYFGVDYEEVDEELLKKIGNKRSYLTKGGEVDLVRTAKTIIKEYQDGKLNYYKVDLKKYGQDRERDISFITKYLKDFPFIEDAKMIVTHLKDFDGLYKKIKKPVLGSEEIDGNIVVVSFGEKTKDACRKKVENLCRERNIEVLSKFGDKIGANNIYVAVGKRVKE | soluble
MGSDKIHHHHHHMTDEHSVFEYKIGLLAPSRVGKSTLIAGLLTEGQQQLAQDSSVHLLTADRPTKNRLAATYNLVSGALKARMFEPGLVPSTSDPSWFRLLLEARGQDLQIRFDILDYPGAWLEGAGEGTEDEQKWNECEAFLADSSVLILPIDSVLLMDSGDDHAHLLASHLSVFQINQAVLRWAKNRRELSGEPAMIVFCPVKCETYLSDSGSLQDHAGTLRGKVVDQFSDVLKTVRDAAPHAAVRYLPIDTFGCVELVSARWIHAQGSPGGEMLVPKYRVRPPGQIVRKGLDDLLTLLCRQLVDTARAQSERTTAAKQTAALNSRNHAELREGFFRDLWLNFNGERNRRRHTAATDERLFAMSQRTTQSLFDVLTALAGRESGPRLHHLS | not soluble
MGHHHHHHSHMTSETPDYLLKYAAISSSEQRQSYKNDFNAEYSEYRDLHARIERITRRFTQLDAQLRQLSQGSEEYETTRGQILQEYRKIKKTNTNYSQEKHRCEYLHSKLAHIKRLIAEYDQRQLQAWP | soluble
MSLKVKAINLYTYKEPFKSPISTPKVKLTHRESLFTEIVTYSGETYYGECNAFLTNWYDKETILTVVNRLRQWIPQVLHKDMTSFDSWLPYLNQMNDAPAARSMVVMAVYQMYNDLHDFEVQYGATVSGLTNSQIETLLETRPKRIKLKWSTSLIKDLETIRLLNFDCDIAIDANESLTKPSFLQLANVNTSDIIYIEEPFKILEDLNDIDMSIFPRIAIDEKALSIEKIQSIIQQYPIQVVVLKPFRLGGIDRMLNAMKILKEKNIRFVVGGMYEFGLSRYFTAMLAKEGSYPGDITPHGYYFSNDIVETSGILKGGMIYFTPPKVKRSLLNKVEGHHHHHH | not soluble
MHHHHHHSSGVDLGTENLYFQSMKLIRVENFEAYFKKQQADSNCGFAEEYEDLKLVGISQPKYAAELAENRGKNRYNNVLPYDISRVKLSVQTHSTDDYINANYMPGYHSKKDFIATQGPLPNTLKDFWRMVWEKNVYAIIMLTKCVEQGRTKCEEYWPSKQAQDYGDITVAMTSEIVLPEWTIRDFTVKNIQTSESHPLRQFHFTSAPDHGVPDTTDLLINFRYLVRDYMKQSPPESPILVHCSAGVGRTGTFIAIDRLIYQIENENTVDVYGIVYDLRMHRPLMVQTEDQYVFLNQCVLDIVRSQKDSKVDLIY | soluble
MGHHHHHHSHMAAPPQLRALLVVVNALLRKRRYHAALAVLKGFRNGAVYGAKIRAPHALVMTFLFRNGSLQEKLWAILQATYIHSWNLARFVFTYKGLRALQSYIQGKTYPAHAFLAAFLGGILVFGENNNINSQINMYLLSRVLFALSRLAVEKGYIPEPRWDPFPLLTAVVWGLVLWLFEYHRSTLQPSLQSSMTYLYEDSNVWHDISDFLIYNKSRPSN | not soluble
AGGLKYDLDLNLSHYKSVLKSMANPDYLYEYGALRTYVGGEIGEFWVYQTAGIFQNQAEVDEWNTAHGYKDQNGNWQPLQPVAKPGDIRFIDQNGDGMLDTNDRVKVGSGTPKVSLGFNINLTYKDFDLVANFYGDFGAKRYNYTKYQLERMDHVFNYGKNALNAWTPENPDTDIPRAVSGDPNKNSRTSTRFVENGDYLRLNNLQIGYNLPVKYCKKMGLSNLRIYVGATRLFTITNYKGYDPSTGSSVGQMGYDYAAIPLSRDFMMGLKFGF | not soluble
SNAASATETNTAPSADTQAPKPVNTVTSDVDCSVSAAWGLYKFNQKSNFSAEFEMPESVKAGTGFDALIKIKDISVSNDNLSGYKNAKLTKSSIRINVGKNVKLDGNQPGLSLSNGVLSINDHLKASLEGNSLRISAAPITVRLQALTEGTLTFIPEKTILTNTASVDGYTANTTCTTNADKPFATVKVDPADGLTITAPESASIKQDVQITATVPEKLNEKMDGKVQFFVNHIAAGDPVPVTEDNKASTSIIFDTSGSKTITARFIDAEGYNPAPDGETIIPVVTELDTKKPEDTDSYTGLINGSATSLLKPAKVMPGEKVSVSASLLPNKAPIRVYEIGINAPEDVKYIDGTGKTNYSSKLATTGSVFSSPGSGYYDPEWKNESKKPNESYRGFHSDTSYSVVDTSPQTVSAEFEIPKTLAPGIYMFQMGVYKYSNSLKDLVSIPETAFEIAGPDLPALPERKIKPQPEETPEVSDGSSTAKLVKSP | soluble
SNRIYTLFLQRNPDFKGGVSIAGHSLGSLILFDILTNQKDSLGDIDSEKDSLNIVMDQGDTPTLEEDLKKLQLSEFFDIFEKEKVDKEALALCTDRDLQEIGIPLGPRKKILNYFSTRKNSMGIKRPAPQPASGANIPKESEFCSSSNTRNGDYLDVGIGQVSVKYPRLIYKPEIFFAFGSPIGMFLTVRGLKRIDPNYRFPTCKGFFNIYHPFDPVAYRIEPMVVPGVEFEPMLIPHHKGRKRMHLELREGLTRMSMDLKNNLLGSLRMAWKSFTRAPYPALQASETPEETEAEPESTSEKPSDVNTEETSVAVKEEVLPINVGMLNGGQRIDYVLQEKPIESFNEYLFALQSHLCYWESEDTVLLVLKEIYQTQGIFLDQPLQ | soluble
MNDAPPFDLDAYLARIGYTGPRNASLDTLKALHFAHPQAIPFENIDPFLGRPVRLDLAALQDKIVLGGRGGYCFEHNLLFMHALKALGFEVGGLAARVLWGQSEDAITARSHMLLRVELDGRTYIADVGFGGLTLTAPLLLEPGREQKTPHEPFRIVEADDHFRLQAAIGGDWRSLYRFDLQPQYEVDYSVTNYFLSTSPTSHFLSSVIAARAAPDRRYALRGNRLSIHHLGGRTEQTEIATAADLADTLQGLLGIIIPDRTAFEAKVRETKIVETNA | soluble
MAYTIGVDFGTLSGRAVLVHVQTGEELAAAVKEYRHAVIDTVLPKTGQKLPRDWALQHPADYLEVLETTIPSLLEQTGVDPKDIIGIGIDFTACTILPIDSSGQPLCMLPEYEEEPHSYVKLWKHHAAQKHADRLNQIAEEEGEAFLQRYGGKISSEWMIPKVMQIAEEAPHIYEAADRIIEAADWIVYQLCGSLKRSNCTAGYKAMWSEKAGYPSDDFFEKLNPSMKTITKDKLSGSIHSVGEKAGSLTEKMAKLTGLLPGTAVAVANVDAHVSVPAVGITEPGKMLMIMGTSTCHVLLGEEVHIVPGMCGVVDNGILPGYAGYEAGQSCVGDHFDWFVKTCVPPAYQEEAKEKNIGVHELLSEKANHQAPGESGLLALDWWNGNRSTLVDADLTGMLLGMTLLTKPEEIYRALVEATAYGTRMIIETFKESGVPIEELFAAGGIAEKNPFVMQIYADVTNMDIKISGSPQAPALGSAIFGALAAGKEKGGYDDIKKAAANMGKLKDITYTPNAENAAVYEKLYAEYKELVHYFGKENHVMKRLKTIKNLQFSSAAKK | soluble
KPTEPHQFAQQVLYDLDQQPRIIAQLSHQQPMLLYFWGTWCRYCQFTSAAVQQLANEKIPILTIALKSGDEQDISNNYLTQQKYTFPTINDPDGNIAKNWTIQATPTIIFIKDGKIVEYTTGLTSYWGLKSRLW | not soluble
